Values quoted from earlier work in PMC11668491.

Target: UBC2 (Saccharomyces cerevisiae) (UniProt P06104)
Sequence of UniProt P06104 (P06104 whole entry): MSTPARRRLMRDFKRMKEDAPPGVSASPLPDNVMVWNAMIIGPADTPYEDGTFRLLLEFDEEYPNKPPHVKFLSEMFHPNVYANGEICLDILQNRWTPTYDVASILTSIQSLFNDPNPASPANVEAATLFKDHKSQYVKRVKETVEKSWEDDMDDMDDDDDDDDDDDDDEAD

Kd: 140 nM
Substance: UBR1 U2BR (from UniProt P19812)
